Measurements: patent publication US20190134153A1, “IMMUNOMODULATORY EFFECT OF INHALED KINASE INHIBITOR PEPTIDES IN LUNG” (MOERAE MATRIX, INC., priority 2017, published 2019)

What was measured:
Experiment in all cases: Kinase Profiling Assay
Format in all cases: biochemical
Conditions in all cases: 100 μM
Rsk1(h) = Rsk1(h) (Homo sapiens, UniProt Q15418)
Fms(h) = Fms(h) (Homo sapiens, UniProt P07333)
MRCKβ(h) = MRCKβ(h) (Homo sapiens, UniProt Q9Y5S2)
EphB3(h) = biological target: T1, EphB3(h) (Homo sapiens, UniProt P54753)
T1 sequence (P54753 34-998): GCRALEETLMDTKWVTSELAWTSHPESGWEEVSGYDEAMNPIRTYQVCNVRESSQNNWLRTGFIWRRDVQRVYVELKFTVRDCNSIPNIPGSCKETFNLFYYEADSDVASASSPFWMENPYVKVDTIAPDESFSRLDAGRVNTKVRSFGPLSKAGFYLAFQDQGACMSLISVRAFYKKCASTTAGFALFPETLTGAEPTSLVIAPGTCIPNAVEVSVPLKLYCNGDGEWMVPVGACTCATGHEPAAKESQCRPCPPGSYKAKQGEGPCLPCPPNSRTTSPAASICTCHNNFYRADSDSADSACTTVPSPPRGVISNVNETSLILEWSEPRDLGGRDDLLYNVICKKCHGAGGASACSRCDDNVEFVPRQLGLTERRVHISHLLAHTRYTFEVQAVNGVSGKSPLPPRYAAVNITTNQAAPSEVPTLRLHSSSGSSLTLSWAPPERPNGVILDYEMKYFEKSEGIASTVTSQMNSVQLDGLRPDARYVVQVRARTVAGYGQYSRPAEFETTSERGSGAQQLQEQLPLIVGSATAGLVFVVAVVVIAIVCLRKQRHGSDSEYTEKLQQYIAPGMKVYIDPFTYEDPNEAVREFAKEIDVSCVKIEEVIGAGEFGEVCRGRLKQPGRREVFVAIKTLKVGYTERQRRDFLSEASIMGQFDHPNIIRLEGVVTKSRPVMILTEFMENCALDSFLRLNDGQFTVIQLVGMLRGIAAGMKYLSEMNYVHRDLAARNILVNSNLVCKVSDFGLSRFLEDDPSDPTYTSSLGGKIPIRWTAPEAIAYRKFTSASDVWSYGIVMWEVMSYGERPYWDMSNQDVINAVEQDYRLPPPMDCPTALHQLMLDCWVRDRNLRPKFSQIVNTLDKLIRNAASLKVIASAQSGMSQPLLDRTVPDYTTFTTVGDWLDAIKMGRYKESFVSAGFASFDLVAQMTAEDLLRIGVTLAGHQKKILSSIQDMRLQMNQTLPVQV

CDK3/cyclinE(h) = CDK3/cyclinE(h) (Homo sapiens, UniProt Q00526)
PKCβI(h) = PKCβI(h) (Homo sapiens, UniProt P05771)
EphB2(h) = biological target: T2, EphB2(h) (Homo sapiens, UniProt P29323)
T2 sequence (P29323 19-1055): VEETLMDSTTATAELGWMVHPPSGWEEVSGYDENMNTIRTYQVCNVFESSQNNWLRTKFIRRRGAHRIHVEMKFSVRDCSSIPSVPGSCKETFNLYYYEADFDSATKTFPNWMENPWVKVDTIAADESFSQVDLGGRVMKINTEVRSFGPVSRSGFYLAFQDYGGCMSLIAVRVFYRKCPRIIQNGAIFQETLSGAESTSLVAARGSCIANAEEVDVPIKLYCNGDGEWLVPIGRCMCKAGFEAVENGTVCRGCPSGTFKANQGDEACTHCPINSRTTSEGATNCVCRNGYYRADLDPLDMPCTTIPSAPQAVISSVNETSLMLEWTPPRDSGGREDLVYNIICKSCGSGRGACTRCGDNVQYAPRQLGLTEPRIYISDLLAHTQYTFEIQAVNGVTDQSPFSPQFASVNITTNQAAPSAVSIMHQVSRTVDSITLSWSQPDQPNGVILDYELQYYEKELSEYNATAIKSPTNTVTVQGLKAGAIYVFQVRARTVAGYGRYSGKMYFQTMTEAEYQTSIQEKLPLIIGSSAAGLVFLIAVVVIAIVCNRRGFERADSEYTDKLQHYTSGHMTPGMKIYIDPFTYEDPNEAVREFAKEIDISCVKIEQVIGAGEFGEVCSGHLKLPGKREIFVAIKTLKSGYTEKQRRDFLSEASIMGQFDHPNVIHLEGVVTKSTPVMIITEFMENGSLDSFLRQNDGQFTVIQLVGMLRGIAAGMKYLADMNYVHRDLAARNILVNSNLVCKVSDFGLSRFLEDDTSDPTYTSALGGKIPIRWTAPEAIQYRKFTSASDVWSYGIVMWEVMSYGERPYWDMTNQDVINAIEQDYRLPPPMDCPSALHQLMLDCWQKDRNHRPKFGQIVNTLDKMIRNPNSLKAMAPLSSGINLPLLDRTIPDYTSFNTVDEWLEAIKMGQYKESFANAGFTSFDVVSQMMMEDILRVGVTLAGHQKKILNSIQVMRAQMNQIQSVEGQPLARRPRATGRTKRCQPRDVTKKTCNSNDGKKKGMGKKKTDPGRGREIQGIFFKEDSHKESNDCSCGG

CDK7/cyclinH/MAT1(h) = CDK7/cyclinH/MAT1(h) (Homo sapiens, UniProt P50613)
ULK3(h) = biological target: T3, ULK3(h) (Homo sapiens, UniProt Q6PHR2)
T3 sequence (Q6PHR2 1-472): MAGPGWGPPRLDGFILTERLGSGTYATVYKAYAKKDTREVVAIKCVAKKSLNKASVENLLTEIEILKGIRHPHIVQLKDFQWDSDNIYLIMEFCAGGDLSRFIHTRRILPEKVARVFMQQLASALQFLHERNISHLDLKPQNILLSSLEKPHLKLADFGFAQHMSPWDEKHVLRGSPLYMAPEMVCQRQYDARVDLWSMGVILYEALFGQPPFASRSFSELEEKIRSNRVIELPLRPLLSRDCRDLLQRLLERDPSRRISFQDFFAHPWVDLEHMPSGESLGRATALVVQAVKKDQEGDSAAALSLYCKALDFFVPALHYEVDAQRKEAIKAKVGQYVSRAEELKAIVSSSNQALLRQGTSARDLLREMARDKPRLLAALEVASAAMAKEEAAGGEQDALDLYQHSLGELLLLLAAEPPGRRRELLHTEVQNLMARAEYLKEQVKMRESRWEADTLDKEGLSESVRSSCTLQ

Met(Y1248D)(h) = Met(Y1248D)(h) (Homo sapiens, UniProt P08581, Y1230D)

PKCβI(h), sequence (P05771 whole entry): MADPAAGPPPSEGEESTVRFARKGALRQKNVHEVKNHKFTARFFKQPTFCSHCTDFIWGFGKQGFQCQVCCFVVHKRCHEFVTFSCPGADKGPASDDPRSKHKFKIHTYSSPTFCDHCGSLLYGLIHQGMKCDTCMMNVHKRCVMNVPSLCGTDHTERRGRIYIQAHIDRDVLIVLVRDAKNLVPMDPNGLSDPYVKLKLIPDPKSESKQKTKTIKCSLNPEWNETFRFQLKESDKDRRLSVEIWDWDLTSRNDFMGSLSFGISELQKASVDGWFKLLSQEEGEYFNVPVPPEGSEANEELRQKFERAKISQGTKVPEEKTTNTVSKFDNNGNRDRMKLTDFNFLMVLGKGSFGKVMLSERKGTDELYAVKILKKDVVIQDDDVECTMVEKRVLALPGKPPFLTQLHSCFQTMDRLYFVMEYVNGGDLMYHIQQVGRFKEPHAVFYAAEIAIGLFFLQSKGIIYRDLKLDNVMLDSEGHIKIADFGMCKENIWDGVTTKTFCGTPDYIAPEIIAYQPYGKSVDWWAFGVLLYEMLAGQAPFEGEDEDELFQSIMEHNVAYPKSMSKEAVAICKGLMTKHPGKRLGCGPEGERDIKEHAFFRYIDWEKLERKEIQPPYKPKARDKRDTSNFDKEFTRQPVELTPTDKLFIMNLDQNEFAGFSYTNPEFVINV
MRCKβ(h), sequence (Q9Y5S2 whole entry): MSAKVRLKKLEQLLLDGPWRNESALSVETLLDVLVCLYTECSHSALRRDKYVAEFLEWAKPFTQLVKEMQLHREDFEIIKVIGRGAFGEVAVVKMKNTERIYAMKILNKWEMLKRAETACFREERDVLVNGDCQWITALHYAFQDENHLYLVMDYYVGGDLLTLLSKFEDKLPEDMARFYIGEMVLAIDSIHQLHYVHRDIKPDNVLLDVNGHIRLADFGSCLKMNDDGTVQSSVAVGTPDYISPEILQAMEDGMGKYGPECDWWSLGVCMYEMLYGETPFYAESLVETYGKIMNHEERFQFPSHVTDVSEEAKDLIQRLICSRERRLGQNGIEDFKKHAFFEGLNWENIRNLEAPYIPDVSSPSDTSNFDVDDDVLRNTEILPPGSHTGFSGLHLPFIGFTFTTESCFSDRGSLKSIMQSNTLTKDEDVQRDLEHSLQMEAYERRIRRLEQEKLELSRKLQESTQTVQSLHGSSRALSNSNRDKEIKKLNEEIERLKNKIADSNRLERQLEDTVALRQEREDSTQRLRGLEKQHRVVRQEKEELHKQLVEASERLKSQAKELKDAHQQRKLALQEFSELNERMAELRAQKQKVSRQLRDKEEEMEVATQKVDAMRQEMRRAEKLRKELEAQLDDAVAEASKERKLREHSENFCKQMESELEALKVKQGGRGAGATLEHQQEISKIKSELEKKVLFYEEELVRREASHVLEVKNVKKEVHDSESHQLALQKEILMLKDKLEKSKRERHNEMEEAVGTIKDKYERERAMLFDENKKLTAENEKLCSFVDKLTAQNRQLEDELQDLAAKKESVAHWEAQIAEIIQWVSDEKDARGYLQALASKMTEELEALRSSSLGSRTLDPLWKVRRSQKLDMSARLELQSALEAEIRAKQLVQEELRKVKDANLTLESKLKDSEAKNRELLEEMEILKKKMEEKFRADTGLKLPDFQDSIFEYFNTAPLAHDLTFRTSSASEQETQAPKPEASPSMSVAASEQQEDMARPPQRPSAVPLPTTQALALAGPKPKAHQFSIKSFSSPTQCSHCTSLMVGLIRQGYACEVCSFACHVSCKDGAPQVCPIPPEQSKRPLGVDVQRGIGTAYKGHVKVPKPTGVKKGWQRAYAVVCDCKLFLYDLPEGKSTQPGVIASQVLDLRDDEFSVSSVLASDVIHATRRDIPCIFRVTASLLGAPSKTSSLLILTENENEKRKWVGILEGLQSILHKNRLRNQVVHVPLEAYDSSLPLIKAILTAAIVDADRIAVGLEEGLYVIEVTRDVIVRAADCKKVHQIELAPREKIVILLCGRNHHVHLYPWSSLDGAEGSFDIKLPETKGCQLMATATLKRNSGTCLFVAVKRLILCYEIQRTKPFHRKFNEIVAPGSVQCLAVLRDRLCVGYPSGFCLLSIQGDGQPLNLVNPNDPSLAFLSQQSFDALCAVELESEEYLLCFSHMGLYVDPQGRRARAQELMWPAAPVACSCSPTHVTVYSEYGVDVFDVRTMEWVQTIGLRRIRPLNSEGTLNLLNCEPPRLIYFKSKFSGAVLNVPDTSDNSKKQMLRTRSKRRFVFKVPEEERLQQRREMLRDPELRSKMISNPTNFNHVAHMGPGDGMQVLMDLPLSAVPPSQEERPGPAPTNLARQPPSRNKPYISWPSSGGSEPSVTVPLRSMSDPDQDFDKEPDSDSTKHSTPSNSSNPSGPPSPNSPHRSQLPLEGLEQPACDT
Rsk1(h), sequence (Q15418 whole entry): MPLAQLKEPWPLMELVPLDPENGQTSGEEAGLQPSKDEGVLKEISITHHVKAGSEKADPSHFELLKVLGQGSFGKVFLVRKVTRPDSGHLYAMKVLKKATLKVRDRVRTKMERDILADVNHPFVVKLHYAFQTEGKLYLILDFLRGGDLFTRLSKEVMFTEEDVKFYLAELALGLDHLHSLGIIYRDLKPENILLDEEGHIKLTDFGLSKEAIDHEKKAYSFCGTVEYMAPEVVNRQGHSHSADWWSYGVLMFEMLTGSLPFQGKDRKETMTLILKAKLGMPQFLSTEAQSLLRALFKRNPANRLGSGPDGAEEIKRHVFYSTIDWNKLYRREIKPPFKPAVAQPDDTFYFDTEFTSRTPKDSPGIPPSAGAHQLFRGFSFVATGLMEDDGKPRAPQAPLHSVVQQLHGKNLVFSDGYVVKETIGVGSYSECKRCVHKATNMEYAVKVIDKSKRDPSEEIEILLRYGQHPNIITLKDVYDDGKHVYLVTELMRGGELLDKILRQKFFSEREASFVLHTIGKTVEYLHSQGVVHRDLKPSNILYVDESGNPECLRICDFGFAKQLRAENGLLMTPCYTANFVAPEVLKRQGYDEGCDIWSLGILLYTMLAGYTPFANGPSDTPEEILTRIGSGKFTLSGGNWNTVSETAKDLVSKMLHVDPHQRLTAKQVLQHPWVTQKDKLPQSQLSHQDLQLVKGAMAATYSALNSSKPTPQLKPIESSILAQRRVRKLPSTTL
CDK7/cyclinH/MAT1(h), sequence (P50613 whole entry): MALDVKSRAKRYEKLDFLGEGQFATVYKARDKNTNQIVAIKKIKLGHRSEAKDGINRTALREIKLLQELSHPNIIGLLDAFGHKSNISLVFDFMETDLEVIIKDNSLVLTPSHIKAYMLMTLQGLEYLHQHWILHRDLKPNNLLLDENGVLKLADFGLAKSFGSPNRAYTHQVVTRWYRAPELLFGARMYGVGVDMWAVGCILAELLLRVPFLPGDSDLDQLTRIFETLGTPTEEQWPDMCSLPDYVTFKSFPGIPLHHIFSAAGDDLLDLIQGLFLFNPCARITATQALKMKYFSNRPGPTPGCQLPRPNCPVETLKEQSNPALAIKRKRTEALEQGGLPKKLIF
CDK7/cyclinH/MAT1(h), sequence (P51946 whole entry partner): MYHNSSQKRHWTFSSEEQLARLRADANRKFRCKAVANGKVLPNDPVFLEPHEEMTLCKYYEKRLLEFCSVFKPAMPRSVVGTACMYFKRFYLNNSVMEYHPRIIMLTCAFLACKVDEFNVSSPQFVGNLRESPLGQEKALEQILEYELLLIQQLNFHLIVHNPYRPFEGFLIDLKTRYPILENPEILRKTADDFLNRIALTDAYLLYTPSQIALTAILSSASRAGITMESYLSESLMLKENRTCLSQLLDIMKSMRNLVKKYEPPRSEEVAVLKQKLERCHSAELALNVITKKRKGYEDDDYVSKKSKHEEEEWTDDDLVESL
CDK7/cyclinH/MAT1(h), sequence (P51948 whole entry partner): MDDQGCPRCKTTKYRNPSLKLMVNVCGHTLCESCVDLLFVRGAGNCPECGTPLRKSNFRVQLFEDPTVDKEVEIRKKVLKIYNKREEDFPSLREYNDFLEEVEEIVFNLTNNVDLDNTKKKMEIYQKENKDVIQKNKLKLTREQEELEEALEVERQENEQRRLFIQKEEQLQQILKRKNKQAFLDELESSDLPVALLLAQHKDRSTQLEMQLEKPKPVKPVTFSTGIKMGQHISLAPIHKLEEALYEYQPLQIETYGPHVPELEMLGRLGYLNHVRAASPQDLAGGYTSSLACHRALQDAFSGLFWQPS
CDK3/cyclinE(h), sequence (Q00526 whole entry): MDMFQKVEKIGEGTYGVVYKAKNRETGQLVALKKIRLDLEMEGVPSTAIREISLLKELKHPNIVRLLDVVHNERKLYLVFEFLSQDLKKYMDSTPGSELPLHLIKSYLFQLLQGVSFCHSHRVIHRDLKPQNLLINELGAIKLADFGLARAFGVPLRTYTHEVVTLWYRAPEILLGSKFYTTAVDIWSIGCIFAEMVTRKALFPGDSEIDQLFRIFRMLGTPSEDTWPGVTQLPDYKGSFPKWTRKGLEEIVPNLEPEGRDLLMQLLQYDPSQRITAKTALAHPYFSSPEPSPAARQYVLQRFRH
CDK3/cyclinE(h), sequence (P24864 whole entry partner): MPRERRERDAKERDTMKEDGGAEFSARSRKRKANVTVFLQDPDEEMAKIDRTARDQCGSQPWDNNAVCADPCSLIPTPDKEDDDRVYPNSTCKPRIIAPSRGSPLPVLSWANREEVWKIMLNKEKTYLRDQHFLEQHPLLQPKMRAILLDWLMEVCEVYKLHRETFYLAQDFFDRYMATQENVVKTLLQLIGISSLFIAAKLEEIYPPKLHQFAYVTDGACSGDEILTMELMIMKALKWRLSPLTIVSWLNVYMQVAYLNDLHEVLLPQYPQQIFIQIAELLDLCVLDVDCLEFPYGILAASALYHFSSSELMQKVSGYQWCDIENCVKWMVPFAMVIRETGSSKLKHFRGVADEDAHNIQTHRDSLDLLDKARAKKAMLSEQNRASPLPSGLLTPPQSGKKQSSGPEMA

Row | Sequence | % activity (Rsk1(h)) [%] | % activity (Fms(h)) [%] | % activity (MRCKβ(h)) [%] | % activity (EphB3(h)) [%] | % activity (CDK3/cyclinE(h)) [%] | % activity (PKCβI(h)) [%] | % activity (EphB2(h)) [%] | % activity (CDK7/cyclinH/MAT1(h)) [%] | % activity (ULK3(h)) [%] | % activity (Met(Y1248D)(h)) [%]
1 | FAKLAARLYRKALARQLGVAA [MMI-0300] | 46 | 45 | 83 | 62 | 94 | 78 | 18 | 65 | 167 | –
2 | HRRIKAWLKKIKALARQLGVAA [MMI-0500] | 34 | 14 | −10 | 79 | 8 | 1 | 70 | 15 | 177 | 218
3 | KAFAKLAARLYRKALARQLGVAA [MMI-0400] | 54 | 37 | 71 | 47 | 92 | 78 | 22 | 47 | 147 | 31
4 | YARAAARQARAKALNRQLGVA [MMI-0200] | – | 92 | – | 128 | – | 98 | 128 | 67 | 164 | 118
